Source: patent publication US20210403579A1 (DELINIA, published 2021)
Residue numbers refer to the chain shown, from its start.

T1: Human ST2 (human, UniProt Q01638 19-328, limits assumed)
T1 construct: also called human ST2 protein; Interleukin 1 receptor-like 1
T1 sequence (looked up): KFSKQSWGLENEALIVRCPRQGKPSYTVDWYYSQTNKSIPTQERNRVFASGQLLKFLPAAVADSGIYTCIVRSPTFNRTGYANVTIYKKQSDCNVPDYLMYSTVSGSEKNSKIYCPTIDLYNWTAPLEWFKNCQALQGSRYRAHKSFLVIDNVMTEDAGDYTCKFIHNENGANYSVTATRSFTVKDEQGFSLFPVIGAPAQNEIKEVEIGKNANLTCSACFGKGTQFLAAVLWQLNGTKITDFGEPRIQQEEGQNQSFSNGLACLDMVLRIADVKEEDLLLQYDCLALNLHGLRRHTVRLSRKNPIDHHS

T2: Mouse ST2 (mouse, UniProt P14719 27-332, limits assumed)
T2 construct: also called mouse ST2 protein
T2 sequence (looked up): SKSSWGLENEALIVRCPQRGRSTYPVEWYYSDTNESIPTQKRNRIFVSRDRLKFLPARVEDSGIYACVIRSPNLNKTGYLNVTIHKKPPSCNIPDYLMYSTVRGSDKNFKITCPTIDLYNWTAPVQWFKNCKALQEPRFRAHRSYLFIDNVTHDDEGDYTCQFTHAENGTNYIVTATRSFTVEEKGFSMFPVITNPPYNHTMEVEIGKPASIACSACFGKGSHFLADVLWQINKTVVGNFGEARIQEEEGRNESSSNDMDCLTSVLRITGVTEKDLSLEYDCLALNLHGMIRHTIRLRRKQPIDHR

B1: Human ST2 IgG1 Antibody 101 (antibody, V domains shown)
VH: QVQLVQSGAEVKKPGASVKVSCKASGYTFSTYDINWVRQAPGQGLEWVGIISPSGGWTTYAQKFQGRVTMTRDTSTSTVYMELSSLRSEDTAVYYCARVNYDILTGQGRGYYFDYWGQGTLVTVSS
VL: DIQMTQSPSSLSASVGDRVTITCQATQDIADYLNWYQQKPGKAPKLLIYKASSLESGVPSRFSGSGSGTDFTLTISSLQPEDFATYYCQQSYSTPTFGPGTKVDIKR
notes: IgG1, kappa; also called ST2 Antibody 101
B2: Human ST2 IgG1 Antibody 109 (antibody, V domains shown)
VH: QVQLVQSGAEVKKPGSSVKVSCKASGYRFTDYYIHWVRQAPGQGLEWMGIIQPTGGGTTYAQKFQGRVTITADESTSTAYMELSSLRSEDTAVYYCARVGATVTKNYYYYYGMDVWGQGTTVTVSS
VL: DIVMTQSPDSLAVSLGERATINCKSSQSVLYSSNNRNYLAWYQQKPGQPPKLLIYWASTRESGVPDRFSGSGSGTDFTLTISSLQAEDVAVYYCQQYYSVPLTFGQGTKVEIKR
notes: IgG1, kappa
B3: Human ST2 IgG1 Antibody 102 (antibody, V domains shown)
VH: QVQLVQSGAEVKKPGSSVKVSCKASGYIFTRYYVNWVRQAPGQGLEWMGGIIPMFGTSNYAQKFQGRVTITADESTSTAYMELSSLRSEDTAVYYCARSSGYDSFKIDYWGQGTLVTVSS
VL: not shown
notes: IgG1, kappa
B4: Human ST2 IgG1 Antibody 103 (antibody, V domains shown)
VH: QVQLVQSGAEVKKPGASVKVSCKASGYTFTSYYMHWVRQAPGQGLEWMGWMNPNSGNTGYAQKFQGRVTMTRDTSTSTVYMELSSLRSEDTAVYYCARETSFDYYYGMDVWGQGTTVTVSS
VL: DIQMTQSPSSLSASVGDRVTITCRASQSISNWLAWYQQKPGKAPKLLIYDGSNLGTGVPSRFSGSGSGTDFTLTISSLQPEDFATYYCLQDFTYPLTFGGGTKVEIKR
notes: IgG1, kappa; also called ST2 Antibody 103
B5: Human ST2 IgG1 Antibody 106 (antibody, V domains shown)
VH: QVQLVQSGAEVKKPGSSVKVSCKASGYTFTDYYIHWVRQAPGQGLEWMGGIIPIYGTANYAQKFQGRVTITADESTSTAYMELSSLRSEDTAVYYCARTNWGMDVWGQGTTVTVSS
VL: EIVMTQSPATLSVSPGERATLSCRASQGIPSNSLAWYQQKPGQAPRLLIYGTSARASGIPARFSGSGSGTEFTLTISSLQSEDFAVYYCQQYYSTPWTFGQGTKVEIKR
notes: IgG1, kappa
B6: Human ST2 IgG1 Antibody 107 (antibody, V domains shown)
VH: QVQLVQSGAQVKKPGASVKVSCKASGGTFSSYTISWVRQAPGQGLEWMGVIYPSGDITVYAQEFQGRVTMTRDTSTSTVYMELSSLRSEDTAVYYCARAWARYFDYWGQGTLVTVSS
VL: DIQMTQSPSSLSASVGDRVTITCQASQDISNYLNWYQQKPGKAPKLLIYDASNLQAGVPSRFSGSGSGTDFTLTISSLQPEDFATYYCQQSYSSPITFGQGTRLEIKR
notes: IgG1, kappa
B7: Human ST2 IgG1 Antibody 104 (antibody, V domains shown)
VH: QVQLVQSGAEVKKPGSSVKVSCKASGYTFTNYAIIWVRQAPGQGLEWMGGIIPVFGTADYTQTFQGRVTITADESTSTAYMELSSLRSEDTAVYYCARVSTNYYDSSGYYAFDYWGQGTLVTVSS
VL: DIQMTQSPSSLSASVGDRVTITCRASQSISSYLNWYQQKPGKAPKLLIYDASSLQSGVPSRFSGSGSGTDFTLTISSLQPEDFATYYCQQTYHTPWTFGQGTKVEIKR
notes: IgG1, kappa
B8: Human ST2 IgG1 Antibody 108 (antibody, V domains shown)
VH: QVQLVQSGAEVKKPGASVKVSCKASGNTFTAYYMHWVRQAPGQGLEWMGIINPSGGSTSYAQKFQGRVTMTRDTSTSTVYMELSSLRSEDTAVYYCARGVGATNYWGQGTLVTVSS
VL: B7 VL with S28G, S31N, Y32N, D50A, T91G, Y92F, H93N, T94F, W96L, Q100G
notes: IgG1, kappa; also called ST2 Antibody 108
B9: Human ST2 IgG1 Antibody 105 (antibody, V domains shown)
VH: EVQLLESGGGLVQPGGSLRLSCAASGFTFSSYAMHWVRQAPGKGLEWVAVMSYDGRHEYYADSVKGRFTISRDNSKNTLYLQMNSLRAEDTAVYYCASTDYDIGGYSLPLDYWGQGTLVTVSS
VL: B7 VL with I29V, Y32W, N34A, D50A, S53N, T91S, H93D, T94V, K103R, V104L
notes: IgG1, kappa

Target: T1, Human ST2
Experiment: SPR (Carterra), antibody immobilized, ST2 analyte, 1:1
Experimental: (§1) Binding of the reformatted human ST2 antibodies to the human and mouse ST2 proteins was evaluated by surface plasmon resonance (SPR), using a high throughput antibody screening and characterization platform from Carterra (Salt Lake City, Utah).

Kd	koff	kon	Binder
0.59 µM	0.11 s⁻¹	190000 M⁻¹ s⁻¹	B1
0.01 µM	0.0061 s⁻¹	600000 M⁻¹ s⁻¹	B2
0.27 µM	0.065 s⁻¹	240000 M⁻¹ s⁻¹	B3
0.14 µM	0.0063 s⁻¹	45000 M⁻¹ s⁻¹	B4
0.616 µM	0.15 s⁻¹	240000 M⁻¹ s⁻¹	B5
0.465 µM	0.062 s⁻¹	130000 M⁻¹ s⁻¹	B6
0.121 µM	0.061 s⁻¹	510000 M⁻¹ s⁻¹	B7
0.028 µM	0.0056 s⁻¹	200000 M⁻¹ s⁻¹	B8
0.256 µM	0.095 s⁻¹	370000 M⁻¹ s⁻¹	B9

Target: T2, Mouse ST2
Experiment: as above
Experimental: as §1

Kd	koff	kon	Binder
0.0011 µM	0.0013 s⁻¹	1.1e+06 M⁻¹ s⁻¹	B2
0.211 µM	0.0058 s⁻¹	27000 M⁻¹ s⁻¹	B4
0.684 µM	0.096 s⁻¹	140000 M⁻¹ s⁻¹	B7
0.172 µM	0.07 s⁻¹	410000 M⁻¹ s⁻¹	B9
